Measurements as given in the nanobody polyreactivity screen of Harvey et al. (2022).

Test: yeast display, Sf9 membrane polyspecificity reagent, FACS + sequencing; frameworks hold sequencing errors
In short: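 Genes from sorted yeast were amplified by colony PCR, read by MiSeq 2 × 250 sequencing and filtered on CDR length. These cells carried a synthetic nanobody library in Saccharomyces cerevisiae BJ5465 and were sorted by FACS into low and high (top ~1%) gates on anti-HA and streptavidin fluorescence. Polyreactivity is labelled according to the gate of origin.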

Sequence | polyreactivity (PSR sort gate)
QVQLVESGGGLVQAGGSLRLSCAASGRTFPSYAMGWYRQSPGKERELVAAITVSGGNTYYADSVKGRFTISRDNAKNTVYLQMNSLKPEDTAVYYCNTASYVSWYVHYYYWGQGTQVTVSS | low polyreactivity
QVQLVESGGGLVQAGGSLRLSCAASGRTFPTNAMGWYRQAPGKERELVARITWSGGSTYADSVKGRFTISRDNAKNTVYFQMNSLKPEDTAVYYCAARGYKPQFPWRRYDYWGQGTQVTVSS | high polyreactivity
QVQLVESGGGLVQAGGSLRLSCAASGRTFPVNAMGWYRQAPGKERELVAAITTNGGRTYYADSVKGRFTISRDNAKNTVYLQMNSLKPEDTAVYYCATRAYNDKRYGYWGQGTQVTVSS | high polyreactivity
QVQLVESGGGLVQAGGSLRLSCAASGRTFPWYAMGWYRQAPGKERELVADITWSGGSTYYADSVKGRFTISRDNAKNTVYLQMNSLKPEDTAVYYCATRVLFWYRKYPGRPLTKYDYWGQGTQVTVSS | high polyreactivity
QVQLVESGGGLVQAGGSLRLSCAASGRTFPWYAMGWYRQAPGKERELVATISRSGASTYYADSVKGRFTISRDNAKNTVYLQMNSLKPEDTAVYYCAARLGYATLYSWGQGTQVTVSS | high polyreactivity
QVQLVESGGGLVQAGGSLRLSCAASGRTFPYNAMGWYRQAPGKERELVAAISYSGGRTYYADSVKGRFTISRDNAKNTVYLLMNSLKPEDTAVYYCNALGSGREDDYWGQGTQVTVSS | high polyreactivity
QVQLVESGGGLVQAGGSLRLSCAASGRTFPYNAMGWYRQAPGKERELVAVISSSGGSTYYADSVKGRFTISRDNAKNTVYLQMNSLKPEETAVYYCNTRPYYYRRPGYRYSGYDYWGQGTQVTVSS | high polyreactivity
QVQLVESGGGLVQAGGSLRLSCAASGRTFPYYAMGWSRQAPGKERELVAGITSNAGSTYYADSVKGRFTISRDNAKNTVYLQMNSLKPEDTAVYYCAKTKAGRWTTFKFGYWGQGTQVTVSS | high polyreactivity
QVQLVESGGGLVQAGGSLRLSCAASGRTFPYYAMGWYRQAPGKEREFVAGISRTGGSTYYADSVKGRFTISRDNAKNTVYLQMNSLKPEDTAVYYCNAPYIMTQQGGRRYDYWGQGTQVTVSS | high polyreactivity
QVQLVESGGGLVQAGGSLRLSCAASGRTFPYYAMGWYRQAPGKERELVAAINGRGGSTYYSDSVKGRFTISRDNAKNTVYLQMNSLKPEDTAVYYCAARYESRYSRYGYWGQGTQVTVSS | high polyreactivity
QVQLVESGGGLVQAGGSLRLSCAASGRTFPYYAMGWYRQAPGKERELVAAISYSGGTTYYADSVKGRFTISRDNAKNTVYLQMNSLKPEDTAVYYCAAERAILSSDKQSLWRFDYWGQGTQVTVSS | low polyreactivity
QVQLVESGGGLVQAGGSLRLSCAASGRTFPYYAMGWYRQAPGKERELVARIRSDGSTNYADSVKGRFTISRDNAKNTVYLQINSLKPDDTAVYDCAAKPYPSLFFHYGYWGQGTQVTVSS | low polyreactivity
QVQLVESGGGLVQAGGSLRLSCAASGRTFPYYAMGWYRQAPGKERELVARITSGSGTYYADSVKGRFTISRDNAKNTVYLQMNSLKPEDTAVYYCAAREPGVGYVGHYTGLDYWGQGTQVTVSS | low polyreactivity
QVQLVESGGGLVQAGGSLRLSCAASGRTFPYYDIGWYRKAPGKERELVAAITSGGTTNYADSVKGRFTISRDNAKNTVYLQMNSLKPEDTAVYNCAAGSPWYYFSSYGYWGQGTQVTVSS | low polyreactivity
QVQLVESGGGLVQAGGSLRLSCAASGRTFQDNAMGWNRQAPGKETELVAAISWRGGSTNYADSVKGRFTISRDHAKNTVYLQMNSLKPEHTAVYYCNRDPRKYGKLDYWGQGTQVTVSS | low polyreactivity
QVQLVESGGGLVQAGGSLRLSCAASGRTFQENGMGWYRQAPGKERELVATISQRGTSTYYADSVKGRFTISRDNAKNTVYLQMNSLKPEDTAVEYCARRRVYRWYTGDYWGQGTQVTVSS | low polyreactivity
QVQLVESGGGLVQAGGSLRLSCAASGRTFQEYAMGWYRQAPGKERELVADISDGGSTNYADSVKGRFTISRDNAKNTVYLQMYRLKPEDTAVYYCAADQYHGVGINFRSDYDYWGQGTQVTVSS | low polyreactivity
QVQLVESGGGLVQAGGSLRLSCAASGRTFQKYAMGWYRQAPGKERELVAAITGSGGSTYYADSVKGRFTISRDIAKYTVYLQMNSLKPEDTAVYYCAAYAYGVWHSQDGGNYWGQGTLVTVSS | low polyreactivity
QVQLVESGGGLVQAGGSLRLSCAASGRTFQNYAMGWYRQAPGKERELVADITSGGSTYADSVKGRFTMSRDNAKNTVYLQMNSLKPEDTAVYYCNADRTYPEPAEYYYWGQGTQVTVSS | low polyreactivity
QVQLVESGGGLVQAGGSLRLSCAASGRTFQPNVMGLFRQEPGKESELVAAISWSGASTYYADSVKGRFTISRDNAKNTVYLQMNSLKPEDTSVYYCAAEFPFPPACDYWGQGTQVTVSS | low polyreactivity
QVQLVESGGGLVQAGGSLRLSCAASGRTFQRYALGWYRQAPGKERELVAAITSRGGSTYYADSVKGRFTISRDNAKNTDYLQMNSLIPEETAVYYCSARSRRTHSEPQSEMDYWGQGTQVTVSS | high polyreactivity
QVQLVESGGGLVQAGGSLRLSCAASGRTFQRYAMGWYRQAPGKERELVAAITSGSRTNYADSVKGRFTSSRDNAKNTVYLQMNSLKPEDTAVYYCAADYTWRNNYCGQGTQVTVSS | high polyreactivity

Sequence | polyreactivity (PSR sort gate)
QVQLVESGGGLVQAGGSLRLSCAASGRTFQTNDMGWYRQAPGKERELVAAISRRGGSTYYADSVKGRFTISRDNAKNTVYLQMNSLKPEDTAVYYCAATRLSRYEYWGQGTQVTVSS | low polyreactivity
QVQLVESGGGLVQAGGSLRLSCAASGRTFQTYAMGWYRQAPGTERELVAAISSDGSTYYADSVKGRFTISRDNATNTVYFQMHSLKPEDTAVYYRNTAIGDKYDYHVRVDYEYWGQGTQVTLSS | low polyreactivity
QVQLVESGGGLVQAGGSLRLSCAASGRTFQYNAMGWNRQAPGKERELVAAISWSDGITYYADSVKGRFTISRDNAKNTVFLQMNSLKPEDTAVYYCAAEGYGLSYYFPYDYWGQGTQVTVSS | high polyreactivity
QVQLVESGGGLVQAGGSLRLSCAASGRTFQYNAMGWNTQAPGKERELVAAISSGGSTYYADSVKGRFTISRDNAKNTVYLQMNSLKPEDTAVYYCNAVTGYQHVKYRYYYWGQGTQVTVSS | low polyreactivity
QVQLVESGGGLVQAGGSLRLSCAASGRTFQYYAMGWYRQAPGKERELVAAISGIGTSTSYADSVKGRFTISRDNAKNTVYLQMNSLKPEDTAVYYCAARLLVPCSPWYTNYYWGQGTQVTVSS | low polyreactivity
QVQLVESGGGLVQAGGSLRLSCAASGRTFQYYAMGWYRQAPGKERELVAAISGIGTSTSYADSVKGRFTISRDNAKNTVYLQMNSLKPEDTAVYYCAARLLVPGSPWYTNYYWGQGTQVTVSS | low polyreactivity
QVQLVESGGGLVQAGGSLRLSCAASGRTFQYYAMGWYRQAPGKERELVAAITWSGTSTYYADSVKGRFTISRDNAKNTVYLQMNSLKPEDTAVYYCNKYSPYITYDYDYWGQGTQVTVSS | high polyreactivity
QVQLVESGGGLVQAGGSLRLSCAASGRTFQYYAMGWYRQAPGKERELVATISYSGGSTSYADSVKGRFTISRDNAKNTVYLQMNSLKPEDTAVYYCAADYYYGDALSPSYPHWDFYYWGQGTQVTVSS | low polyreactivity
QVQLVESGGGLVQAGGSLRLSCAASGRTFRAYAMGWYRQAPGKERELVAAITGGGSTKYADSVKGRFTISRDNAKNTVYLQMNSLKPEETAVYYCAATGRSGVLSSYYYWGQGTQVTVSS | high polyreactivity
QVQLVESGGGLVQAGGSLRLSCAASGRTFRDNAMGWYRQAPGKERELVAAISSGDRTNYADSVKGRFTISRDNAKNTVYLQMNSLKPEETAVYYCAAVRYNSRVSTTPSEMYYWGQGTQVTVSS | low polyreactivity
QVQLVESGGGLVQAGGSLRLSCAASGRTFRDNAMGWYRQAPGKERELVAAISWSGGSTYYADSVKGRFTISRDNAKNTVYLQMNSLKPEDTAVYYCAASGYYRYTPFRYDHWGQGTQVTVSS | low polyreactivity
QVQLVESGGGLVQAGGSLRLSCAASGRTFRDYVMGWYRQAPGKERELVAAISTRGASTYYADSVKGRFTISRDYAKNTVYLQMNSLKPEDTAVYYCAARSTRRGNEYDYWGQGTQVTVSS | high polyreactivity
QVQLVESGGGLVQAGGSLRLSCAASGRTFRFNTMGWYRQAPGKERELVAAITSSGGSTYYADSVKGRFTISRDNAKNTVYLQMNSLKPEDTAVYYCAKRFYYRNRFDYWGQGTQVTVSS | low polyreactivity
QVQLVESGGGLVQAGGSLRLSCAASGRTFRFYAMGWYRQAPGKERELVAAITYGGGSTYYADSVKGRFTISRDNAKNTVYLQMNSLKPEDTAVYYCAARAGRVPSWSGRTRYYYGGQGTQVTVSS | high polyreactivity
QVQLVESGGGLVQAGGSLRLSCAASGRTFRFYVMGWYRQAPGKERELVAAISRGGGSTYYADSVKGRFTISRDNAKNTVYLQMNSLKPEDTAVYYCAAKPYKTRSSYWGDYYWGQGTQVTVSS | high polyreactivity
QVQLVESGGGLVQAGGSLRLSCAASGRTFRGNAIGWYRQAPGKERELVAAIRWNGGSTYYADSVKGRFTISRDNAKNTVYLQMNSLKPEDTAVYYCAVSYWYSRYDYWGQGTQVTVSS | high polyreactivity
QVQLVESGGGLVQAGGSLRLSCAASGRTFRGNAMGWYRQAPGKERELVAAISGSGGRTYYADSVKGRFTISRDNAKNTVYLKMNSLKPEDTAVFYCAAKRGKTYQRFDYWGQGTQVTVSS | high polyreactivity
QVQLVESGGGLVQAGGSLRLSCAASGRTFRGNAMGWYRQAPGKERELVAAISRGGSTKYADSVKGRFTISGDNAKNTVYLQMNSLKPEDTAVYYCAADNRKSRYDYWGQGTQVTVSS | high polyreactivity
QVQLVESGGGLVQAGGSLRLSCAASGRTFRGNAMGWYRQAPGKERELVAAISRRGVSTYYADSVKGRFTISRDNAKNTVYLQMNSLKPEDTAVYYCNADTSYQRVGGNYWGQGTQVTVSS | high polyreactivity
QVQLVESGGGLVQAGGSLRLSCAASGRTFRGNAMGWYRQAPGKERELVAAISWSGGRTYYADSVKGRFTISRDNAKNTVYLQMNSLKPEDTAVYYCAAGVPKNGQAGYDYWGQGTQVTVSS | high polyreactivity
QVQLVESGGGLVQAGGSLRLSCAASGRTFRGNAMGWYRQATGKERELVDVITASGSTTYADSVKGRFTISRDNAKNTVYLQLYSLKPEDTAVYYCAKYVPWYTLWLGGTDRDYWGQGTQVTVSS | low polyreactivity
